In this assay the target is CXCL12 locked dimer (CXCL12-LD) (UniProt P48061). In words: ITC.
CXCL12 locked dimer (CXCL12-LD), sequence (P48061 22-89 L57C/A86C): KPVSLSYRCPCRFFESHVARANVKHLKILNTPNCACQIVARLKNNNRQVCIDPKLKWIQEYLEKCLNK

B1: ACKR1^N-term, sixty-amino acid peptide corresponding to the extracellular N-terminus of ACKR1 (domain or fragment)
chain: MGNALHRAELSPSTENSSQLDFEDVWNSSYGVNDSFPDGDYGANLEAAAPAHSANLLDDS
B1 registered a KD of the first transition (sequential binding model) of 6 nM and a stoichiometry N of 1.

Values taken from PMC9015690.
